Experimental data as given in the domain aggregation screens of Martell et al. (2025).

Test: soluble fraction after stress (log2 fold change); higher = more stays soluble; pooled small domains, quantitative proteomics
Conditions: stress: 50 degC
Summary of the method: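 Quantitative proteomics served as the high-throughput read-out for pooled custom libraries of small protein domains. Each was stressed at 50°C. Aggregation propensity is expressed as the base-two log fold change in soluble protein after stress. A higher value means a larger share of the protein remains in solution.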

| Sequence | soluble fraction (log2) |
| --- | --- |
| HMSRARSRQTSMLEAVAGLGPARRRALLKQFGGLQGVLRAGIEDLSRAPGIGPALAQAIFEHLHPGA | -0.466 |
| HMRNMTDYLTIVRAVYGGLSQRQAATTYHVSRNTVSLLIRHAKNQGWLTVEDLSRADAAAFSPA | -0.517 |
| HMKQDFVYNGFVEAKGDDLMVQINYKGETYYVTEGESFGGFTVKSANKDKVVLSGQGGAETVLEFR | -0.106 |
| HMPSKTFYNLSQEKQQKIIDASEKEFSNNLYQDVSLNQIIKNSNISRGSFYMYFTDKEDLYFYLLNEY | 0.275 |
| HMKSSLAKNLETLMQERQISQTRLSKISGVSQSYIFKILNDQIKKPSLDTLEKLATALDSTVAQLNH | -0.00953 |
| HMDEEQIASRRALIMRAAREIMETQGMEALSIRKIAAMIQQTPGIIYHYFSGKEELMLAVVQEGYH | 0.111 |
| HMRNMVSVLDHIEGIGPKRRQLLYEHYGELEKIKEASVEEMAGLDGMNRPAAEAVYNFFLAQRNL | 0.0507 |
| HMQNLSELAYVNLRDALMQGQMKPGEELPLRPISRSFGISATPMREALLRLVTESALEMDSRGRISVP | -0.341 |
| HMGLIDNLTRIMEKKNISAYQLEKAGIVKQTTFTSWKKGTQPALDKIIKIMQYIEVTPNELFGY | -1.39 |
| HMAEANTEADFVAIGVRAELLPILQKLGVHTIEQLKGIKATKLFNDIPGMRKKLKLDAVQNPTLQEIEGWL | 0.00541 |
| HMENMTLGQRIQALRKQHGLSQEGLGERLGVSRQAISRWEMDGAVPEVDKLIAMARLFGVSLNQLLGVE | -0.193 |
| HMEEDPVISQAQRQALFKLAHDHFGQEEGNKVILRLIGEHGLRSTTNMTASVYKTVTDALIQVIESMVEG | -0.0318 |
| HMKSTELSIIEALRVLGLKHGASQDSIKKSYRRLVKQHHPDLGGSADSFRKVNEAYQLLIMN | -0.425 |
| HMEDSSSILNRMRKLIALLNRASEAYYKENKEIISNFEYDRLYDELLGLESRSNTVLSGSPTYKV | -1.63 |
| HMNSTEQQTERFLATLTSLGGNAGNQRLQEALGWQGSTYQRIKQHLLDEGRIRTGRGRGGSVALSEATAT | 0.143 |
| HMTKGVWHTVKKGENLYRISLYYEVPQQEIKKANKIETENIVVGQKLFIPNTTKKSPIFALTP | -1.49 |
| HMAHESYVKEQLLLSLTNHEDPIMQISLIEQLTKMHERNIIHELEKLTVDVQTNEEVKVQAYASLLILS | -0.53 |
| HMKEFSFNGGKVIMNYEADRIQIKHDSRPNQEVITLMKRNGFKWSPTNQAWQRQITGNAIYVTKNLLKS | -1.35 |
| HMAPLATIHVSSLSQKPFYLYGTFEDRRGNHLFFLEQIMGENKSIPVAMPSSAINPKIHASLTPPKG | -0.32 |
| HMQSNDTAEIEAVVKEIMAANERVVNDYRSGNTKVVSFFVGQVMKATKGKANPKVVNEVLAKLLK | 0.0929 |
| HMNIAEIGQKVAQQRVALGISQERLAKLSDLSRSTIHHLEHGTLHEIGAAKLFKLLSLLDIQLK | -0.761 |
| HMTELVIPDYFSKALAKNKKAKQVFEAFAYSHRKEYLQWITEAKTEETRNKRMATAIEWIAEGKGRNWKYA | -1.69 |
| HMTIRIPEEEYLTRAKRAAQMTAERGLDALFLFGSEGDFQNVRYFTSVTPIWERLGVVITASGKAAMLTGP | -0.0521 |
| HMASDLPTVTIMGKTFYTYVAKKGESFFGIANRFGWDPELLVKTNRELETPLDKGALIYYPVPKKPK | -0.199 |
| HMGMFNENLRFLRQKRQMSQQAFASILGIPRTTYSEYEKGNTEPNLKLLIRLSELLDVSLDNLISDDLTHN | -2.44 |

| Sequence | soluble fraction (log2) |
| --- | --- |
| HMAPGIGDSKYFSHIYEMKHIDTIIDNDKGDRLIEHFEIQDTPFIFTKHWTSAFGFSKRQQEIITDYLSYF | 0.0839 |
| HMKNLDILTPKEIEVLNLVAKGYSNSKISKELDIAEVTVKKHIGSMFQKLDVKDRLSLALIL | -0.118 |
| HMESPVNTLPEDQRAWYKALPPELSTKTAVEAGAGVGVSERTVKRLLSNQTFFINLQRGNYRKRH | 0.172 |
| HMEEIPYGVISAKAGAAAYDYIKKSIELGIEKKIDGVATAPIQKEAIHMAGISYIGHTEMYQGIT | 0.0739 |
| HMSNPPIRIGKKALHELLTTWLSLLSRDGVAYLVVQKNLGADSLTAWLRDQGFPSEKIASKKGFRIIEVH | -0.245 |
| HMDIVLPFSFAKRHGVVLSERQGETELLYLKGLPVRVLAEARRVLRQEFTVRQVEQAVFDKALSESYQN | -1.04 |
| HMTNLKALRESKGVSQQTVADYLGITRQAYGNYETGKRQADYAALLRLAAFFGVSVDALLQP | -0.299 |
| HMDDKVGKVFNYVQEKILTGEWDIGDKITPEISLSKELGVSRSVVREAIKKFVALNILSRTQGGGTYVNNL | -0.515 |
| HMPKTATIVIDLNYADAKEIVENLQTILAGETKDISVAPHPSANQIIASGDRWEVENISTIIKQLDR | 0.00694 |
| HMAPDDTAVWSAFIGWFRTAPDGPNPLGAYAAKLGEEGLDAAEVGRRMTVIVRLFAEKPEGAEVFYDRTYA | -0.875 |
| HMKSGLLNLSTRKQEKIKQALLSEFSNVSLLEAKVANIVTLAEISRGSFYTYFEDIYDAYQWLASI | -0.26 |
| HMLVLAENMDVIFTRRTLDDHVVVDYKTTIGEMVKNDEIKGENMDELISAVEKDGYELVSSTSGEIIFLND | -1.2 |
| HMIETIIGAEGKVLETIDNFNQKGVVALAGKEWTARSADASIIPEGAKVSVVEISGVKLIVTQN | 0.067 |
| HMIKILGSAYRHGLDDDDILRAWNYHIQEFFEGEDPEKIVRLGFDTHGRLLEIGGEIYPGGGEKIFHAM | -0.729 |
| HMESAESRVDLIGMIGEAITDLRPAGTAQFGEERIDVVSESEWITEGSTVKVVSAEGYRHVVRVME | -0.162 |
| HMDEAETELIRRMVSEHPPTTKRERDIVQMRLRGYLFVEIGEAYGISFQRAAQIYNAAVEKIKEYWD | 0.00188 |
| HMKNVEEMILGKLKRKVSENLENASFEEIILVDAEKSVYKGIIKANYIEYYFRVNLSTGEVLSWKLK | -0.373 |
| HMNQEFRMPNAIKGVELSEENKQQLTQGEKVFLEGMTSAKGSLFDAYVYIDQEKKTLAFDFPEK | 0.184 |
| HMIVDARNREINLGSHVRYVDTGTVGEVTDSKVENDASWVKIDKTNLWYLANKLELLNDEDFKT | 0.0653 |
| HMEPMTDQQILEGFAEFKRQNPDLMNRPATQAIVNLTLPGGTPISFRSGAGAAALNQYLESIGMRAGP | 0.202 |
| HMPLAQRFGLTVAQARVLDLLAEGRSNRQIGELLGLTEGTVKIHVSAIMKAMGVSNRAEAALMANRKR | -0.717 |
| HMGKEIEAPDFKNMTLKEAKIAAKEYKIRIKKGDEVVSEEVEKGRIVSQDPDAGTTIKTGSTVTVNISKGL | 0.126 |
| HMTDLNDTQIKILELLSADASLSAAKMAGQLGIAGRNVEANIKKLKEKGILIRHGSPKSGYWEIVN | -0.0982 |
| HMYPGQILEIYLDEIKRLYLNGLSSADIFAEIKEGSIPSVKKAIRSMKDGSAPVKITEAEESTRIAPS | -0.441 |
| HMSSDKVWSFEASGKQLQASYVAFENETVYLRASEDGSLLQFPLTDFGMKDQLVVLELYELSAKINRSN | -0.49 |

| Sequence | soluble fraction (log2) |
| --- | --- |
| HMDSHSAESVRQRIKDMIAAEASKSILSDDTIVENLKSEGIEIARRTVAKYRESLNIPSSIQRRRIARSEA | -0.0963 |
| HMGMTAPIPGVVLKVSVLPGQKVERGDELLTIEAMKMFNVMRSPSSGTIATVHIKDGDRVVQGQPLVTFA | 0.025 |
| HMLAMHVVESVGGAEQFTKLQNFAKTQNADYQKMWNDTMNSGNVLAIKTMLSGIQSDMIAVQ | -0.16 |
| HMDIRVAHVDDDMSFGEAFAQARSQVGPGGVFEWHGKLYGTYTAEEWASMSPAERSQYQQAVFN | -0.0545 |
| HMNIDQAFISDLERMIMPDISKYELMDIISIMENSGFTIKVEGTGNEVRQVIKPGSKLKKGQKIKIKL | -1.83 |
| HMADQIIEGILGKEGGYVNNPNDKGGPTRWGITQTTARAYGYSGDMKALPRDTAKAIYLSQYWT | -0.183 |
| HMDNWLSGLAVEADRMILTQPGEVFDRLSRAFEATLIRRALASTGGRRIEAAHLLGIGRNTITRKIQDLGL | -2.49 |
| HMEDLAERLDNLSTMYAKMDPVRAAQVLLESKNKSENIEVLKRLKPKSLGLILENMPPREAYDYVSELQ | 0.0712 |
| HMQTTPAGHELLIRYFANGNIRERGMMKDGKRNGIWIFYDESGMEIRKTKYKMGKIISDYDLN | -1.07 |
| HMAVLFFVKRGERILGPTRLADLFQHAASGRLRANDLVGESPKGPWLPARQLDELEDAWASSRDATEAAAA | 0.251 |
| HMTIRPEDVELVPAEDGYMQGDVVSNIFKGVHYELEVKANGYDWMVHTTKYVEVGSHVGIKVIPFNIQV | -0.0208 |
| HMDENMQRYNTMEEIKKEFPYAEDTVRKLIAMGAIRGGGKVDANGDPADMDLSRDMLRMMVFNDRAGAYG | 0.544 |
| HMRITEQRRTLAKLFADTPGYLSPKDVYDYMGRFYPGLSFDTVYRNLRLLDELGVLEQVVFEDGVKFK | -0.718 |
| HMADNILPAQTDAIKALATENGFSNESLEKYLIENYGTTIYGLSRNQGIQIINLFQSENPPKP | 0.144 |
| HMRTITYSITPAHAGMSVERYLKQQHGYSTRTLVKLKHYPQGLQLNGQHARTVDLLQAGDTLAVTFLD | -0.552 |
| HMPPELSDEVMEEAMSYLKNQYLNHGVKLEDYPALNKLFVDEAFRSEVIRKTQSNYKISYQSAMASLD | 0.0219 |
| HMVSLSNQVFEKIEYDILSGKYKIGEIISEKRLSSELGVSRTPIREALGRLSEEGLVGDSPSGTVVLGI | -0.431 |
| HMIFSIIPGQIRLTKMEIADGYLVLYGFTPSKEIYNLHLNPALKSIFTSSETSFIPVSGGLKFMSTNKL | -1.78 |
| HMRSIVETLTDRELEIFQLIGNGFSTGEIARRLNLSPHTIETHRKNIKDKLGLSSGSELNKQAIQWVLSS | 0.153 |
| HMPGGLSAEDVEKMVEKVLTVNGDVVEEIRSGRDPKGKKIKFLAGLVMRDARGQADAAAVSGILERRLKEG | 0.133 |
| HMSVPNVVGRDQVEASSLLESAGFKVSVKQSYSDSVEQGKVISQSPSGSTTVSPGSTVTITVSQ | 0.122 |
| HMPHSTTDFSVSPDERQIVYSTNLQGRYDLWALDHNQGYPYPLTKKGQMSFFIKHLPGSQMILTGFD | 0.00171 |
| HMDYNYLVFVTNTGPRSIAVEDLEMTVSDGKLVVSSGADGETFDLSTLTKMYFSDAAVVSINDV | -0.996 |
| HMSTSFQVQVSVLDLRIRKEPTVKGQEVGKISKGIHTITETRSADGYTWGKLESGQGWIALEFTTKLD | -0.194 |
| HMGMESFWNRVANLLNTSTVVELAQILDVKRSTLSSWIHSDRRPPMEVLLKITRLTGVDIHRLE | -1.56 |
